Columns and labels:
[1] = biological target: T1, human MASP-3 (construct not stated) (human); test: cell-based or functional assay
T1 chain: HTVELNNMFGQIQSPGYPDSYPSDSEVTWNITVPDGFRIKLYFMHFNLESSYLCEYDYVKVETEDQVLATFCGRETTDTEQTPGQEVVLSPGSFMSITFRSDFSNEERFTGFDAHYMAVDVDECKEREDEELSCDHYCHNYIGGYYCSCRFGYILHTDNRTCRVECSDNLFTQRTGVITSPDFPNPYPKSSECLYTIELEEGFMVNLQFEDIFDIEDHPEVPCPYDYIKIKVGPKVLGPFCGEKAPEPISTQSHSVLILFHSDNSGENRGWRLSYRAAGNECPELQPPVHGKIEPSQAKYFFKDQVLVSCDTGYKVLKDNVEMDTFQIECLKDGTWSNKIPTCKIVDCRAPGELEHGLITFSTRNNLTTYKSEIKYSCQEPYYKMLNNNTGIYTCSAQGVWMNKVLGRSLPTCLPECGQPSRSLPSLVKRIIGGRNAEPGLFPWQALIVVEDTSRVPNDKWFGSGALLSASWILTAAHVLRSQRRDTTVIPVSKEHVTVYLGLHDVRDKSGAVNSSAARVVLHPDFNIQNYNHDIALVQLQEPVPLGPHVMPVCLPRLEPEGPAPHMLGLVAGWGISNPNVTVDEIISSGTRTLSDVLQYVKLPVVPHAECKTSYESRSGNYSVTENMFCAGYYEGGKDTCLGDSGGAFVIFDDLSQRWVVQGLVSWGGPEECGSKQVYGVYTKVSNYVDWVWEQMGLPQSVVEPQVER

[2] = biological target: T1, human MASP-3 (construct not stated); test: cell-based or functional assay
[3] = biological target: T1, human MASP-3 (construct not stated); test: not described at this place
[4] = biological target: T2, human MASP-3 CCP1-CCP2-SP fragment (human); test: sandwich ELISA, MASP-3 CCP1-CCP2-SP captured by αM3-259
T2 construct: limits of the assay construct are not restated; also called rMASP-3 (CCP1-CCP2-SP)
T2 chain: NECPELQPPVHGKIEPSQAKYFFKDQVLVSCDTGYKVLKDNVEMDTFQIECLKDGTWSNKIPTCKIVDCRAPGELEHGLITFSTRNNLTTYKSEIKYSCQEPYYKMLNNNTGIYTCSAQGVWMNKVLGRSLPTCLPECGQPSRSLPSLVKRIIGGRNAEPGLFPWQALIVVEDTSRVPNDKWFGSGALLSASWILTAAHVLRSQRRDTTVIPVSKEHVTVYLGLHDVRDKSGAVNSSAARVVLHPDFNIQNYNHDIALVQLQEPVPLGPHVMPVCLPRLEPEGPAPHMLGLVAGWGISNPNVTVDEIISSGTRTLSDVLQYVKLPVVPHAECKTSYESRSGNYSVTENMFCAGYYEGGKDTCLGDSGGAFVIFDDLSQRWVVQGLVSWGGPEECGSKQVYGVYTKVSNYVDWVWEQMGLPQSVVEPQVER
Method: (§1) The plate was then washed (PBS-T, 0.05%) and the candidate MASP-3 antibodies were added followed by incubation for one hour at room temperature. The plate was washed (PBS-T, 0.05%) and a detection antibody was added (mouse anti-human kappa-HRP, SouthernBiotech #9230-05) for one hour at room temperature. After another wash (PBS-T, 0.05%) the plate was developed (5 minutes) with OPT EIA TMB (BD Biosciences #555214). Absorbance reading at A450 was measured using the Spectramax M5e plate reader.

[5] = biological target: T3, recombinant human MASP-2 (CCP1-CCP2-SP fragment) (human, UniProt O00187 298-686, limits assumed); test: ELISA: recombinant MASP-2 (CCP1-CCP2-SP) coated directly on the plate, A450
T3 construct: domain: CCP1-CCP2-SP fragment
T3 sequence (O00187 298-686 limits assumed): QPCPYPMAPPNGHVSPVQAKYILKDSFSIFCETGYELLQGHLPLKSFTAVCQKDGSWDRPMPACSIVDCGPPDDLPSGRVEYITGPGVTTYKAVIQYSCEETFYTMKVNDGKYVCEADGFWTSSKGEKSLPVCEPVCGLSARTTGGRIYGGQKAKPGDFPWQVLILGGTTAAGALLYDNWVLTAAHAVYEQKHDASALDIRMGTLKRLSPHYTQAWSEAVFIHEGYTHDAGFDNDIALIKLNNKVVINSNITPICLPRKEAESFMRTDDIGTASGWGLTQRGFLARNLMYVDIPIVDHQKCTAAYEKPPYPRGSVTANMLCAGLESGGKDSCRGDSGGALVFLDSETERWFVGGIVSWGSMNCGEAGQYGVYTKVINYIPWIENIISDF
Method: as §1

[6] = biological target: T4, recombinant human MASP-1A (S646A, CCP1-CCP2-SP fragment) (human, UniProt P48740 298-699, limits assumed); test: ELISA: recombinant MASP-1A (S646A, CCP1-CCP2-SP) coated directly on the plate, A450
T4 chain: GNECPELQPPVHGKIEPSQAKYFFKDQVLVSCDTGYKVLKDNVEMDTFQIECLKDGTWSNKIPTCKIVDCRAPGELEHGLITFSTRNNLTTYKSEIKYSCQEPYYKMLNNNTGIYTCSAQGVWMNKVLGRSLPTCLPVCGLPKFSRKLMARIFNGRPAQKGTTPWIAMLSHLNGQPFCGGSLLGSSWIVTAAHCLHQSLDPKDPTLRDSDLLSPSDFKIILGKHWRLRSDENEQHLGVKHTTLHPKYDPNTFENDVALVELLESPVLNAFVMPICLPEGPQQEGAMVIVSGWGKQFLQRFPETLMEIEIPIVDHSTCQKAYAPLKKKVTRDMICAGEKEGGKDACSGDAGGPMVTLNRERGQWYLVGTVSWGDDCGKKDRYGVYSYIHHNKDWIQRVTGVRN
Method: as §1

[7] = biological target: T2, human MASP-3 CCP1-CCP2-SP fragment; test: cell-based or functional assay
[8] = biological target: T5, recombinant full-length mouse MASP-3 (mouse); test: sandwich ELISA, full-length mouse MASP-3 captured by αM3-259
T5 construct: Entry is with leader; also called mouse full length MASP-3
T5 chain: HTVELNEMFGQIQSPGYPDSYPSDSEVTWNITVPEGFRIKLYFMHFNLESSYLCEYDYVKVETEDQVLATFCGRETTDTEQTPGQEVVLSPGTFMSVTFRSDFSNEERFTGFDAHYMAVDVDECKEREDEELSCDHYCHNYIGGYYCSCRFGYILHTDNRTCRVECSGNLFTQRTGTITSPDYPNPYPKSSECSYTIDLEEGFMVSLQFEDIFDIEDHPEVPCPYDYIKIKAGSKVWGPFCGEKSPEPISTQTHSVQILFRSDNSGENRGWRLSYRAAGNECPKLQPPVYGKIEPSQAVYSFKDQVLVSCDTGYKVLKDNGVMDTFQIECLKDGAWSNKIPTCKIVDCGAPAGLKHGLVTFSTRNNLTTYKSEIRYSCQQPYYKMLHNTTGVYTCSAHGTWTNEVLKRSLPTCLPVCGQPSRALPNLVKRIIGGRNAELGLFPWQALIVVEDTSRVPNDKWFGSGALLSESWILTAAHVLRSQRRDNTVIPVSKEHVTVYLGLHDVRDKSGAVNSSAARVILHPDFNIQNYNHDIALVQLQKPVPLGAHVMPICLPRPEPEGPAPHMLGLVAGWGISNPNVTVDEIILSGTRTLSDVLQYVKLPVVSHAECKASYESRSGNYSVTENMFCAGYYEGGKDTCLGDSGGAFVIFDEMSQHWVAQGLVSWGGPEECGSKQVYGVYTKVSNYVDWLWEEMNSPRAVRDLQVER
Method: as §1

Binder	Inhibition of Factor Bb Deposition on Zymosan (IC50 nM), 10% factor D-depleted human serum with pro-factor D [1] [nM]	Inhibition of Rabbit Erythrocyte Lysis (IC50 nM), 10% factor D-depleted human serum [2] [nM]	binding affinity [3] [pM]	EC50 [4] [nM]	binding result [5]	binding result [6]	inhibition of MASP-3-dependent fluorogenic tripeptide (BOC-V-P-R-AMC) cleavage [7] [nM]	EC50 [8] [nM]
MASP-3 mAb 2D7 (mouse-human chimeric IgG4) (antibody, V domains shown) VH: EVQLQQSGPELVKPGASVKVSCKASGYTLTDYYMNWVKQSHGKSLEWIGDVNPNNDGTTYNQKFKGRATLTVDKSSNTASMELRSLTSEDSAVYYCAICPFYYLGKGTHFDYWGQGTSLTVSS VL: DIQMTQTPASLSASLGDRVTISCRASQDISNFLNWYQQKPNGTVKLLVFYTSRLHSGVPSRFSGSGSGAEHSLTISNLEQEDVATYFCQQGFTLPWTFGGGTKVEIKR	3.5	5.4	≤ 500	0.122	no binding (tested: about 20 nM (log10 about 1.3))	no binding (tested: about 20 nM (log10 about 1.3))		
MASP-3 mAb 1A10 (mouse-human chimeric IgG4) (antibody, V domains shown, The light chain of 1A10 was not identified) VH: QVQLKQSGPELVKPGASVKLSCKASGYTFTSNDINWVKQRPGQGLEWIGWIYPRDGTTKYNEKFTDKATLTVDVSSSTAFMELHRLTSEDSAVYFCSSVEDSYWGQGTLVTVSS VL: DIVMTQSPSSLAVSAGEKVTMSCKSSQSLLISRTRKNYLSWYQQKPGQSPKLLIYWASTRESGVPDRFTGSGSGTDFTLTISSVQAEDLAVYYCKQSYNLYTFGGGTKLEIKR		0.2	≤ 500	0.241	no binding (tested: about 20 nM (log10 about 1.3))	no binding (tested: about 20 nM (log10 about 1.3))	29.8	0.15
MASP-3 mAb 1F3 (mouse-human chimeric IgG4) (antibody, V domains shown) VH: QVQLKQSGPELVKPGASVKLSCKASGYTFTSNDINWVKQRPGQGLEWIGWIYPRDGSIKYNEKFTDKATLTVDVSSSTAYMELHSLTSEDSAVYFCSGVEDSYWGQGTLVTVSS VL: DIVMTQSPSSLAVSAGERVTMSCKSSQSLLISRTRKNYLSWYQQKPGQSPKLLIYWASTRESGVPDRFTGSGSGTDFTLTISSVQAEDLAVYYCKQSYNLYTFGGGTKLEIKR	0.1	0.2	≤ 500	0.236	no binding (tested: about 20 nM (log10 about 1.3))	no binding (tested: about 20 nM (log10 about 1.3))	33	0.111
MASP-3 mAb 4B6 (mouse-human chimeric IgG4) (antibody, V domains shown) VH: QVQLKQSGPELVKPGASVKLSCKASGYTFTSNDINWVKQRPGQGLEWIGWIYPRDGTTKYNEEFTDKATLTVDVSSSTAFMELHSLTSEDSAVYFCSSVEDSYWGQGTLVTVSS VL: DIVMTQSPSSLAVSAGEKVTMSCKSSQSLLISRTRKNYLSWYQQKPGQSPKLLIYWASTRESGVPDRFTGSGSGTDFTLTISSVQAEDLAVYYCKQSYNLYTFGGGTKLEIKR	0.2	0.2	≤ 500	0.211	no binding (tested: about 20 nM (log10 about 1.3))	no binding (tested: about 20 nM (log10 about 1.3))	26	0.188
MASP-3 mAb 2F5 (mouse-human chimeric IgG4) (antibody, V domains shown) VH: EVQLQQPGAELVKPGASVKMSCKASGYTFTSYWITWVKQRPGQGLEWIGDIYPGSGSTNYNEKFKSKATLTVDTSSSTAYMQLSSLTSEDSAVYYCARRRYYATAWFAYWGQGTLVTVSS VL: DIVMTQSQKFMSTSVGDRVSITCKASQNVGTAVAWYQQKPGQSPKLLISSASNRYTGVPDRFTGSGSGTDFTLTISNMQSEDVADYFCQQYNSYPLTFGAGTKLELKR		0.9	≤ 500	0.073	no binding (tested: about 20 nM (log10 about 1.3))	no binding (tested: about 20 nM (log10 about 1.3))		0.102
MASP-3 mAb 1G4 (mouse-human chimeric IgG4) (antibody, V domains shown) VH: QVQLKQSGAELMKPGASVKLACKATGYTFTGYWIEWIKQRPGQGLEWIGEMLPGSGSTHYNEKFKGKATFTADTSSNTAYMQLSGLTTEDSAIYYCVRSIDYWGQGTTLTVSS VL: DVLMTQTPLSLPVSLGEQASISCRSSQSLVQSNGNTYLHWYLQKPGQSPKLLIYKVSNRFSGVPDRFSGSGSGTDFTLKISRVEAEDLGVYFCSQSTHVPPTFGGGTKLEIKR	1.1	2.7	≤ 500	0.177	no binding (tested: about 20 nM (log10 about 1.3))	no binding (tested: about 20 nM (log10 about 1.3))	29.6	3.7
MASP-3 mAb 2F2 (mouse-human chimeric IgG4) (antibody, V domains shown) VH: QVQLKQSGAELVTPGASVKMSCKASGYTFTTYPIEWMKQNHGKSLEWIGNFHPYNDDTKYNEKFKGKATLTVEKSSNTVYLELSRLTSDDSAVYFCARRVYYSYFWFGYWGHGTLVTVSS VL: DIVMTQSQKFMSTSVGDRVNVTCKASQNVGTHVAWYQQKPGQSPKALIYSASYRYSGVPDRFTGSGSGTDFTLTISNVQSEDLAEYFCQQYNSYPRALTFGAGTKLELKR		0.8	≤ 500	0.057	no binding (tested: about 20 nM (log10 about 1.3))	no binding (tested: about 20 nM (log10 about 1.3))		0.105

Reference: patent US20200270125A1 (OMEROS, published 2020)
